Columns and labels:
[1] = target: HOPS (homotypic fusion and vacuole protein sorting complex) (S. cerevisiae, UniProt P12868;Q03308;P27801;P20795;Q07468;P38959); experiment: liposome floatation
[2] = target: phospho-HOPS (HOPS phosphorylated by the vacuolar kinase Yck3p) (S. cerevisiae, UniProt P12868;Q03308;P27801;P20795;Q07468;P38959); experiment: liposome floatation

B1: Ypt7p:GTP (vacuolar Rab-family GTPase Ypt7p in its GTP-bound state) (natural protein)
chain: MSSRKKNILKVIILGDSGVGKTSLMHRYVNDKYSQQYKATIGADFLTKEVTVDGDKVATMQVWDTAGQERFQSLGVAFYRGADCCVLVYDVTNASSFENIKSWRDEFLVHANVNSPETFPFVILGNKIDAEESKKIVSEKSAQELAKSLGDIPLFLTSAKNAINVDTAFEEIARSALQQNQADTEAFEDDYNDAINIRLDGENNSCSC
[1]
  binding result: binds
[2]
  binding result: binds

Source: publication PMC4294677 (Molecular Biology of the Cell, 2015)
